According to patent US20130209454A1:

Columns and labels:
Assay in all cases: cell-based or functional assay
[1] = molecular target: HIV-1 Env of strain 191821_E6_1 (HIV-1)
[2] = molecular target: HIV-1 Env of strain 6240_08_TA5_4622 (HIV-1)
[3] = molecular target: HIV-1 Env of strain 6540.v4.c1 (HIV-1)
[4] = molecular target: HIV-1 Env of strain BF1266.431a (HIV-1)
[5] = molecular target: HIV-1 Env of strain BJOX010000.06.2 (HIV-1)
[6] = molecular target: HIV-1 Env of strain BJOX015000.11.5 (HIV-1)
[7] = molecular target: HIV-1 Env of strain C4118.c09 (HIV-1)
[8] = molecular target: HIV-1 Env of strain CNE19 (HIV-1)
[9] = molecular target: HIV-1 Env of strain CNE52 (HIV-1)
[10] = molecular target: HIV-1 Env of strain Ce1172_H1 (HIV-1)
[11] = molecular target: HIV-1 Env of strain Ce704809221_1B3 (HIV-1)
[12] = molecular target: HIV-1 Env of strain HIV-001428-2.42 (HIV-1)
[13] = molecular target: HIV-1 Env of strain HIV-16055-2.3 (HIV-1)
[14] = molecular target: HIV-1 Env of strain SC05_8C11_2344 (HIV-1)
[15] = molecular target: Env of HIV-1 strain 0260.v5.c36 (HIV-1)
[16] = molecular target: Env of HIV-1 strain 1054_07_TC4_1499 (HIV-1)
[17] = molecular target: Env of HIV-1 strain 1056_10_TA11_1826 (HIV-1)
[18] = molecular target: Env of HIV-1 strain 1394C9G1(Rev-) (HIV-1)
[19] = molecular target: Env of HIV-1 strain 191084 B7-19 (HIV-1)
[20] = molecular target: Env of HIV-1 strain 191955_A11 (HIV-1)
[21] = molecular target: Env of HIV-1 strain 246F C1G (HIV-1)
[22] = molecular target: Env of HIV-1 strain 3365.v2.c2 (HIV-1)
[23] = molecular target: Env of HIV-1 strain 3817.v2.c59 (HIV-1)
[24] = molecular target: Env of HIV-1 strain 6041.v3.c23 (HIV-1)
[25] = molecular target: Env of HIV-1 strain 6535.3 (HIV-1)
[26] = molecular target: Env of HIV-1 strain 7030102001E5(Rev-) (HIV-1)
[27] = molecular target: Env of HIV-1 strain BJOX009000.02.4 (HIV-1)
[28] = molecular target: Env of HIV-1 strain C2101.c01 (HIV-1)
[29] = molecular target: Env of HIV-1 strain CNE19 (HIV-1)
[30] = molecular target: Env of HIV-1 strain CNE20 (HIV-1)
[31] = molecular target: Env of HIV-1 strain CNE52 (HIV-1)
[32] = molecular target: Env of HIV-1 strain CNE8 (HIV-1)
[33] = molecular target: Env of HIV-1 strain Ce0393_C3 (HIV-1)
[34] = molecular target: Env of HIV-1 strain Ce0682_E4 (HIV-1)
[35] = molecular target: Env of HIV-1 strain Ce1086_B2 (HIV-1)
[36] = molecular target: Env of HIV-1 strain Ce1176_A3 (HIV-1)
[37] = molecular target: Env of HIV-1 strain Ce2010_F5 (HIV-1)
[38] = molecular target: Env of HIV-1 strain Du156.12 (HIV-1)
[39] = molecular target: Env of HIV-1 strain Du172.17 (HIV-1)
[40] = molecular target: Env of HIV-1 strain Du422.1 (HIV-1)
[41] = molecular target: Env of HIV-1 strain P1981_C5_3 (HIV-1)
[42] = molecular target: Env of HIV-1 strain Q259.d2.17 (HIV-1)
[43] = molecular target: Env of HIV-1 strain Q461.e2 (HIV-1)
[44] = molecular target: Env of HIV-1 strain Q769.d22 (HIV-1)
[45] = molecular target: Env of HIV-1 strain R1166.c01 (HIV-1)
[46] = molecular target: Env of HIV-1 strain SC05_8C11_2344 (HIV-1)
[47] = molecular target: Env of HIV-1 strain T255-34 (HIV-1)
[48] = molecular target: Env of HIV-1 strain X1193_c1 (HIV-1)
[49] = molecular target: Env of HIV-1 strain ZM135M.PL10a (HIV-1)
[50] = molecular target: Env of HIV-1 strain ZM197M.PB7 (HIV-1)
[51] = molecular target: Env of HIV-1 strain ZM233M.PB6 (HIV-1)

B1: NIH45-46^G54W(HC), S28Y(LC) (antibody, V domains shown)
VH: QVRLSQSGGQMKKPGESMRLSCRASGYEFLNCPINWIRLAPGRRPEWMGWLKPRWGAVNYARKFQGRVTMTRDVYSDTAFLELRSLTSDDTAVYFCTRGKYCTARDYYNWDFEHWGRGAPVTVSS
VL: EIVLTQSPATLSLSPGETAIISCRTSQYGSLAWYQQRPGQAPRLVIYSGSTRAAGIPDRFSGSRWGADYNLSISNLESGDFGVYYCQQYEFFGQGTKVQVDI
[1]
  IC50, pseudovirus neutralization: 0.05 µg/mL
[2]
  IC50, pseudovirus neutralization: 0.173 µg/mL
[3]
  IC50, pseudovirus neutralization: > 50 µg/mL
[4]
  IC50, pseudovirus neutralization: 0.002 µg/mL
[5]
  IC50, pseudovirus neutralization: 1.38 µg/mL
[6]
  IC50, pseudovirus neutralization: 0.039 µg/mL
[7]
  IC50, pseudovirus neutralization: 0.011 µg/mL
[8]
  IC50, pseudovirus neutralization: 0.022 µg/mL
[9]
  IC50, pseudovirus neutralization: 0.004 µg/mL
[10]
  IC50, pseudovirus neutralization: > 50 µg/mL
[11]
  IC50, pseudovirus neutralization: 0.101 µg/mL
[12]
  IC50, pseudovirus neutralization: 0.001 µg/mL
[13]
  IC50, pseudovirus neutralization: 0.002 µg/mL
[14]
  IC50, pseudovirus neutralization: 0.07 µg/mL

B2: NIH45-46^G54W (antibody, V domains shown)
VH: QVRLSQSGGQMKKPGESMRLSCRASGYEFLNCPINWIRLAPGRRPEWMGWLKPRWGAVNYARKFQGRVTMTRDVYSDTAFLELRSLTSDDTAVYFCTRGKYCTARDYYNWDFEHWGRGAPVTVSS
VL: EIVLTQSPATLSLSPGETAIISCRTSQSGSLAWYQQRPGQAPRLVIYSGSTRAAGIPDRFSGSRWGADYNLSISNLESGDFGVYYCQQYEFFGQGTKVQVDI
[15]
  IC80: 0.399 µg/mL
[16]
  IC80: 0.165 µg/mL
[17]
  IC80: 0.16 µg/mL
[18]
  IC80: 0.024 µg/mL
[19]
  IC80: 0.026 µg/mL
[20]
  IC80: 0.076 µg/mL
[21]
  IC80: 2.45 µg/mL
[22]
  IC80: 0.056 µg/mL
[23]
  IC80: > 50 µg/mL
[24]
  IC80: 0.001 µg/mL
[25]
  IC80: 0.13 µg/mL
[26]
  IC80: 0.228 µg/mL
[27]
  IC80: 0.564 µg/mL
[28]
  IC80: 0.17 µg/mL
[29]
  IC80: 0.028 µg/mL
[30]
  IC80: 0.48 µg/mL
[31]
  IC80: 0.052 µg/mL
[32]
  IC80: 0.24 µg/mL
[33]
  IC80: 0.089 µg/mL
[34]
  IC80: 0.039 µg/mL
[35]
  IC80: 0.091 µg/mL
[36]
  IC80: 0.45 µg/mL
[37]
  IC80: 0.187 µg/mL
[38]
  IC80: 0.005 µg/mL
[39]
  IC80: 42.9 µg/mL
[40]
  IC80: > 50 µg/mL
[41]
  IC80: 0.07 µg/mL
[42]
  IC80: 0.014 µg/mL
[43]
  IC80: 0.091 µg/mL
[44]
  IC80: 0.009 µg/mL
[45]
  IC80: 0.51 µg/mL
[46]
  IC80: 0.2 µg/mL
[47]
  IC80: 0.099 µg/mL
[48]
  IC80: 0.009 µg/mL
[49]
  IC80: 0.16 µg/mL
[50]
  IC80: 0.18 µg/mL
[51]
  IC80: 0.11 µg/mL
[1]
  IC50, pseudovirus neutralization: 0.013 µg/mL
[2]
  IC50, pseudovirus neutralization: 0.11 µg/mL
[3]
  IC50, pseudovirus neutralization: > 50 µg/mL
[4]
  IC50, pseudovirus neutralization: 0.001 µg/mL
[5]
  IC50, pseudovirus neutralization: 0.769 µg/mL
[6]
  IC50, pseudovirus neutralization: 0.048 µg/mL
[7]
  IC50, pseudovirus neutralization: 0.01 µg/mL
[8]
  IC50, pseudovirus neutralization: 0.002 µg/mL
[9]
  IC50, pseudovirus neutralization: 0.01 µg/mL
[10]
  IC50, pseudovirus neutralization: > 50 µg/mL
[11]
  IC50, pseudovirus neutralization: 0.007 µg/mL
[12]
  IC50, pseudovirus neutralization: 0.001 µg/mL
[13]
  IC50, pseudovirus neutralization: 0.001 µg/mL
[14]
  IC50, pseudovirus neutralization: 0.021 µg/mL

B3: NIH45-46^G54W(HC) S28Y(LC) (antibody, V domains shown)
VH: QVRLSQSGGQMKKPGESMRLSCRASGYEFLNCPINWIRLAPGRRPEWMGWLKPRWGAVNYARKFQGRVTMTRDVYSDTAFLELRSLTSDDTAVYFCTRGKYCTARDYYNWDFEHWGRGAPVTVSS
VL: EIVLTQSPATLSLSPGETAIISCRTSQYGSLAWYQQRPGQAPRLVIYSGSTRAAGIPDRFSGSRWGADYNLSISNLESGDFGVYYCQQYEFFGQGTKVQVDI
[15]
  IC80: 0.084 µg/mL
[16]
  IC80: 0.515 µg/mL
[17]
  IC80: 0.289 µg/mL
[18]
  IC80: 0.055 µg/mL
[19]
  IC80: 0.016 µg/mL
[20]
  IC80: 0.046 µg/mL
[21]
  IC80: 0.14 µg/mL
[22]
  IC80: 0.049 µg/mL
[23]
  IC80: > 50 µg/mL
[24]
  IC80: 0.003 µg/mL
[25]
  IC80: 0.059 µg/mL
[26]
  IC80: 0.229 µg/mL
[27]
  IC80: 0.621 µg/mL
[28]
  IC80: 0.169 µg/mL
[29]
  IC80: 0.102 µg/mL
[30]
  IC80: 0.02 µg/mL
[31]
  IC80: 0.028 µg/mL
[32]
  IC80: 0.156 µg/mL
[33]
  IC80: 0.151 µg/mL
[34]
  IC80: 0.031 µg/mL
[35]
  IC80: 0.042 µg/mL
[36]
  IC80: 0.467 µg/mL
[37]
  IC80: 0.133 µg/mL
[38]
  IC80: 0.024 µg/mL
[39]
  IC80: 0.125 µg/mL
[40]
  IC80: > 50 µg/mL
[41]
  IC80: 0.045 µg/mL
[42]
  IC80: 0.011 µg/mL
[43]
  IC80: 0.134 µg/mL
[44]
  IC80: 0.017 µg/mL
[45]
  IC80: 1.01 µg/mL
[46]
  IC80: 0.219 µg/mL
[47]
  IC80: 0.105 µg/mL
[48]
  IC80: 0.054 µg/mL
[49]
  IC80: 0.163 µg/mL
[50]
  IC80: 0.274 µg/mL
[51]
  IC80: 0.083 µg/mL
